Paper PMC4175578

Molecular target: N-terminal domain (residues 1-79) of HCV glycoprotein E1 ectodomain, N43Q (Hepatitis C virus, strain H77)
Assay: SEC-MALS; analytical Superdex S200 10/30 with online static light scattering; protein not deglycosylated, ~4.2 mg/ml

N-terminal domain (residues 1-79) of HCV glycoprotein E1 ectodomain, N43Q (domain or fragment)
stoichiometry N: 2
